# Values quoted from earlier work, collected in PMC3416887.
# pKd: −log10 of the molar value.
# Target: FibP (Homo sapiens) (UniProt P02679)
substance,measurement,value
thrombin (from UniProt P00734),pKd,6.20
